Experimental data reported in patent US12364733B1, “Method for treating septic shock” (Inotrem, priority 2018, dated 2025).
Entries after “also recorded” stand apart in the source; their conditions may differ.

Columns and labels:
[1] = test system: anti-nangibotide antibodies; assay: Immunogenicity: anti-nangibotide antibodies in serum by indirect ELISA; format: in vivo, human; conditions: baseline, day 8 and day 28
Method: Anti-nangibotide antibodies in serum were evaluated at baseline, day 8 and day 28, by an indirect ELISA method validated according to methods described by Shankar et al. (J Pharm Biomed Anal. 2008 Dec. 15; 48(5):1267-81) and EMA guidance on immunogenicity assessment of biotechnology-derived therapeutic proteins (EMEA/CHMP/BMWP/14327/2006 issued on April 2008). Screening samples determined as positive were further assessed using the confirmatory assay where the cut point was established to have 0.1% of false positive samples (Shankar et al., J Pharm Biomed Anal. 2008 Dec. 15; 48(5):1267-81). […] The sensitivity of the assay was established to be 0.3125 pg/mL.

septic shock patients = assay: Phase IIa clinical trial with nangibotide in septic shock patients (NCT03158948): safety, treatment emergent adverse events; format: in vivo, human; conditions: for safety and tolerability: up to 3 mg/kg/h
Method: This was a European prospective, […], multinational study in 14 centers from 4 countries (France, Belgium, the Netherlands, and Spain). Patients were recruited from July 2017 to June 2018. The study was conducted in accordance with the principles set forth in the Declaration of Helsinki and subsequent amendments, the Guidelines of the International Conference on Harmonization on GCP, as well as the requirements of national drug and data protection laws and other applicable regulatory requirements.
This was a randomized, double-blind, two-stage, placebo-controlled study. As described in FIG. 7, the study was composed of 2 stages with a similar treatment regimen, in which 0.3, 1.0 or 3.0 mg/kg/h of nangibotide (corresponding to peptide LR12, having an amino acid sequence as set forth in SEQ ID NO: 9, also known as motrem) was tested versus placebo. All patients with a diagnosis of septic shock were considered for study participation. All potential study patients underwent standard care management procedures. Patients with evidence of septic shock according to the Sepsis-3 definition (Singer et al, JAMA 2016) were considered for inclusion (i.e., patients suffering from sepsis and having (i) persisting hypotension requiring vasopressors to maintain their mean arterial pressure ≥65 mm Hg and (ii) a serum lactate level >2 mmol/L (18 mg/dL) despite adequate volume resuscitation).
After screening for eligibility, patients were randomized to one of the treatment arms. Then, they received either a 5 mg/kg loading dose of nangibotide over 15 minutes followed by a continuous intravenous (i.v.) infusion of nangibotide or a matching placebo on top of standard of care. Treatment with study drug was initiated as early as possible, but no later than 24 hours after the onset of septic shock, defined by the start of vasopressor therapy. Patients were treated until 12 (±2) hours after the resolution of their septic shock (defined as vasopressor withdrawal) with a maximum treatment duration of 5 days (120 hours).
Stage 1 was performed to investigate ascending doses of nangibotide or placebo in a sequential design in cohorts of 4 patients (3:1 randomization). After completion of a cohort, safety and PK data were reviewed by an independent data safety monitoring board (DSMB) and the study could progress to the next cohort/stage. Stage 2 investigated 3 doses of nangibotide in a randomized, balanced, parallel-group design involving up to 3 doses of nangibotide and a placebo arm.
Adverse events (AEs) were coded using the MedDRA dictionary version 18.1. Treatment-emergent adverse events (TEAEs) were summarized and listed. Analysis was performed in 49 septic shock patients. The demographic and baseline characteristics were summarized in a descriptive fashion within each population: categorical variables were summarized by contingency tables (frequencies and percentages). sTREM-1 levels at day 1 were also described (mean, standard deviation, standard error, median, quartiles and range, minimum and maximum values). Mortality rates were reported by frequency and percentage. For continuous endpoints, i.e., the sequential organ failure assessment (SOFA), missing data were imputed using LOCF (Last Observation Carry-Forward). For time-to-event analyses, i.e., duration of invasive mechanical ventilation (IMV), duration of continuous renal replacement therapy (CRRT), survival, censored data techniques were utilized. In addition, a sensitivity analysis of time to event data (except survival) was performed using censoring at maximum limit for the corresponding observation period (i.e., either day 28 or day 90). […] The following comparisons were made: each nangibotide dose arm to placebo, all nangibotide doses combined versus placebo, and dose-response using an ordinal trend test. […]

## nangibotide (LQEEDAGEYGCM; TLT-1 peptide)
[1]
  anti-nangibotide antibodies in serum: No anti-nangibotide antibodies were found
Septic shock patients; 0.3 mg/kg/h
  All TEAEs leading to treatment withdrawal, % of all TEAEs: (0.0%)
  All TEAEs leading to treatment withdrawal, number: 0
  All TEAEs related to study drug (by investigator), % of all TEAEs: (0.0%)
  All TEAEs related to study drug (by investigator), number: 0
  All TEAEs with intensity severe, % of all TEAEs: (21.4%)
  All TEAEs with intensity severe, number: 12
  All serious TEAEs (including death), % of all TEAEs: (8.9%)
  All serious TEAEs (including death), number: 5
Septic shock patients; 1.0 mg/kg/h
  All TEAEs leading to treatment withdrawal, % of all TEAEs: (0.0%)
  All TEAEs leading to treatment withdrawal, number: 0
  All TEAEs related to study drug (by investigator), % of all TEAEs: (7.1%)
  All TEAEs related to study drug (by investigator), number: 4
  All TEAEs with intensity severe, % of all TEAEs: (23.2%)
  All TEAEs with intensity severe, number: 13
  All serious TEAEs (including death), % of all TEAEs: (5.4%)
  All serious TEAEs (including death), number: 3
Septic shock patients; 3.0 mg/kg/h
  All TEAEs leading to treatment withdrawal, % of all TEAEs: (0.0%)
  All TEAEs leading to treatment withdrawal, number: 0
  All TEAEs related to study drug (by investigator), % of all TEAEs: (0.0%)
  All TEAEs related to study drug (by investigator), number: 0
  All TEAEs with intensity severe, % of all TEAEs: (13.1%)
  All TEAEs with intensity severe, number: 8
  All serious TEAEs (including death), % of all TEAEs: (8.2%)
  All serious TEAEs (including death), number: 5
Septic shock patients; highest dose
  adverse events related to nangibotide treatment at the highest dose: no adverse events related to nangibotide treatment were observed
Septic shock patients; human, in vivo
  AEs related to infections and cardiac disorders, nangibotide groups vs placebo: proportionally higher in the nangibotide groups
  incidence of atrial fibrillation and thrombocytopenia, nangibotide groups vs placebo: proportionally higher in the nangibotide groups
  number of SAEs/AEs and number of patients with SAEs/AEs, nangibotide groups vs placebo group: comparable
Septic shock patients; nangibotide-treated group, without obvious explanation
  suspected unexpected serious adverse reactions (SUSARs), number: Two
Septic shock patients; septic shock patients, 0.3-3.0 mg/kg/h
  adverse events leading to treatment withdrawal: No adverse events (AEs) led to treatment withdrawal
Septic shock patients; septic shock patients
  safety and tolerability: safe and well-tolerated
Septic shock patients; septic shock patients, listed as nangibotide
  safety and tolerability: safe and well tolerated; also recorded: well-tolerated at all doses tested
